Laboratory results published in patent EP2225268B1.
Values belong to the molecule of their own block, whether it stands above or below them.

Tests used:
[1] = target: Wild-type recombinant human NGAL dimer calibrators treated with DTT (human) (UniProt P80188); experiment: … sandwich CMIA, capture HYB 211-01, detection acridinium-HYB 211-02; NGAL 1000 ng/mL
[2] = target: Native NGAL purchased from Diagnostics Development (Uppsala, Sweden), non-reduced (UniProt P80188); experiment: as above
[3] = target: Wild-type recombinant human NGAL monomer expressed in CHO cells (human) (UniProt P80188); experiment: as above
[4] = target: Wild-type recombinant human NGAL dimer expressed in CHO cells (human) (UniProt P80188); experiment: as above
[5] = target: Wild-type recombinant human NGAL dimer calibrators treated with DTT (human) (UniProt P80188); experiment: … sandwich CMIA, capture HYB 211-01, detection acridinium-HYB 211-02; calibrator D, NGAL 250 ng/mL
[6] = target: Wild-type recombinant human NGAL monomer expressed in CHO cells (human) (UniProt P80188); experiment: as above
[7] = target: Wild-type recombinant human NGAL dimer expressed in CHO cells (human) (UniProt P80188); experiment: as above
[8] = target: Wild-type recombinant human NGAL dimer calibrators treated with DTT (human) (UniProt P80188); experiment: … sandwich CMIA, capture HYB 211-01, detection acridinium-HYB 211-02; calibrator F, NGAL 1000 ng/mL
[9] = target: Wild-type recombinant human NGAL dimer expressed in CHO cells (human) (UniProt P80188); experiment: as above
[10] = target: Wild-type recombinant human NGAL dimer calibrators treated with DTT (human) (UniProt P80188); experiment: … sandwich CMIA, capture HYB 211-01, detection acridinium-HYB 211-02; NGAL 5 ng/mL
[11] = target: Native NGAL purchased from Diagnostics Development (Uppsala, Sweden), non-reduced (UniProt P80188); experiment: as above
[12] = target: Wild-type recombinant human NGAL monomer expressed in CHO cells (human) (UniProt P80188); experiment: as above
[13] = target: Wild-type recombinant human NGAL dimer expressed in CHO cells (human) (UniProt P80188); experiment: as above
[14] = target: Native NGAL (plus DTT - reduced) (UniProt P80188); experiment: … sandwich CMIA, capture HYB 211-01, detection acridinium-HYB 211-02; same sample reduced with DTT
[15] = target: Wild-type recombinant human NGAL dimer calibrators treated with DTT (human) (UniProt P80188); experiment: … sandwich CMIA, capture HYB 211-01, detection acridinium-HYB 211-02; curve fit with monomer calibrators; target 1000 ng/mL
[16] = target: Wild-type recombinant human NGAL monomer expressed in CHO cells (human) (UniProt P80188); experiment: as above
[17] = target: Wild-type recombinant human NGAL dimer expressed in CHO cells (human) (UniProt P80188); experiment: as above
[18] = target: Wild-type recombinant human NGAL dimer calibrators with TCEP in the reaction mixture (human) (UniProt P80188); experiment: … sandwich CMIA, capture 1-2322-455, detection acridinium-1-903-430; TCEP in reaction; curve fit with monomer calibrators; target 600 ng/mL
[19] = target: Wild-type recombinant human NGAL monomer expressed in CHO cells (human) (UniProt P80188); experiment: … sandwich CMIA, capture 1-2322-455, detection acridinium-1-903-430; curve fit with monomer calibrators; target 600 ng/mL
[20] = target: Wild-type recombinant human NGAL dimer expressed in CHO cells (human) (UniProt P80188); experiment: as above
[21] = target: Wild-type recombinant human NGAL monomer expressed in CHO cells (human) (UniProt P80188); experiment: … sandwich CMIA, capture 1-2322-455, detection acridinium-1-903-430; monomer calibrator plus TCEP; curve fit with monomer calibrators; target 5 ng/mL
[22] = target: Wild-type recombinant human NGAL monomer expressed in CHO cells (human) (UniProt P80188); experiment: … sandwich CMIA, capture 1-2322-455, detection acridinium-1-903-430; monomer calibrator plus TCEP; NGAL 1000 ng/mL
[23] = target: Wild-type recombinant human NGAL monomer expressed in CHO cells (human) (UniProt P80188); experiment: … sandwich CMIA, capture 1-2322-455, detection acridinium-1-903-430; NGAL 5 ng/mL
[24] = target: Wild-type recombinant human NGAL dimer expressed in CHO cells (human) (UniProt P80188); experiment: as above

RLUs [1]: 855000 RLUs
RLUs [2]: 1.32e+06 RLUs
RLUs [3]: 885000 RLUs
RLUs [4]: 390000 RLUs
RLUs [5]: 378000 RLUs
RLUs [6]: 396000 RLUs
RLUs [7]: 142000 RLUs
RLUs [8]: 855000 RLUs
RLUs [9]: 390000 RLUs
RLUs [10]: 11400 RLUs
RLUs [11]: 15300 RLUs
RLUs [12]: 12000 RLUs
RLUs [13]: 4050 RLUs
NGAL concentration detected [14]: 23.8 ng/mL
Curve Fit Results [15]: 924 ng/mL
Curve Fit Results [16]: 1000 ng/mL
Curve Fit Results [17]: 245 ng/mL
Molecule: anti-NGAL antibody HYB 211-01 from AntibodyShop A/S, Gentofte, Denmark

Curve Fit Results [18]: 292 ng/mL
Curve Fit Results [19]: 591 ng/mL
Curve Fit Results [20]: 173 ng/mL
Curve Fit Results [21]: 4.6 ng/mL
RLUs [22]: 1.95e+06 RLUs
RLUs [23]: 29300 RLUs
RLUs [24]: 9120 RLUs
B1: antibody produced by murine hybridoma cell line 1-2322-455 having ATCC Accession No. PTA-8024 (antibody, V domains shown)
VH: EVQLVESGGGLVQPGGSLKLSCAASGFTFNNYYMSWVRQTPERRLEWVAYISSSGGSTYYSDSVRGRFTISRDTARNTLYLQMTSLKSEDTAMYYCARHFGDYSYFDYWGQGTTLTVSS
VL: DIQMTQSPASLSASVGETVTITCRASENFYSYLAWYQQKQGKSPQLLVYNAKTLAEGVPSRFSGSGSGTQFSLKINSLQPEDFGTYYCQHHYDIPLTFGAGTKLELKR
